Tests used:
Assay in all cases: SEC; HiLoad Superdex 200 26/60 gel-filtration column, 50 mM NaCl, 20 mM Tris-HCl pH 8.0; oligomeric state read from the elution
[1] = target: carbamate kinase (CK) from Mycoplasma penetrans (Mycoplasma penetrans)
[2] = target: short-ADI (arginine deiminase from Mycoplasma penetrans, form initiating at Met43 and ending at Lys452) (Mycoplasma penetrans)
[3] = target: the molecule itself

Molecule: carbamate kinase (CK) from Mycoplasma penetrans (enzyme)
- stoichiometry N [1]: 2

Molecule: short-ADI (arginine deiminase from Mycoplasma penetrans, form initiating at Met43 and ending at Lys452) (enzyme)
- stoichiometry N [2]: 2

B1: ornithine carbamoyltransferase (OTC) from Mycoplasma penetrans (enzyme, UniProt Q8EVF5 1-342, looked up)
chain: MPVNLKGRSLDSLLNFTTEEVQHLIDLSIDLKKAKYQGLHINNRPLVGKNIAILFQKDSTRTRCAFEVAASDLGAGVTYIGPSGSNMGKKESIEDTAKVLGRFYDGIEFRGFAQSDVDALVKYSGVPVWNGLTDDEHPTQIIADFMTMKEKFGNLKNKKIVFIGDYKNNVGVSTMIGAAFNGMHVVMCGPDNYKNEIDKNVLAKCIELFKRNGGSLRFSTDKILAAQDADVIYTDVWVSLGEPFELFDKRIGELKNFQVDMNMIKAAKNDVIFLHCLPAFHDDHTSFSKEVATTLGAKYPIVAKGEMEVTDEVFQSLHNKAFDQAENRMHSIKAIILSTIGY
notes: ornithine carbamoyltransferase (OTC, EC 2.1.3.3), arcB gene product of Mycoplasma penetrans strain GTU-54; traced from Met1 to Tyr342; TGA codons for Trp129 and Trp237 changed to TGG (no change of the amino acids); Dodecamer of four catalytic homotrimers; also called MpOTC; ornitine transcarbamylase; copies: 12
- stoichiometry N [3]: 12
